Reference: patent publication US10772972B2, “Anti-STEAP2 antibody drug conjugates, and compositions and uses thereof” (Regeneron Pharmaceuticals, Inc., priority 2016, dated 2020)

Assays:
Parameters in all cases: key: Wells with GFP positive cells that bound anti STEAP2 antibodies were scored as positive (+); those that did not bind anti STEAP2 antibodies were scored as negative (−)
Conditions in all cases: transient transfection, 48 h
[1] = target: T1, hSTEAP1 fused to GFP (Homo sapiens, UniProt Q9UHE8); assay: Specificity: binding to HEK293 cells transfected with hSTEAP1-GFP
T1 construct: expressed in transfected cells; host or cells: HEK293
Method: (§1) Selected STEAP2 antibodies were then tested for binding to other human (h) STEAP family members (STEAP1, STEAP3, and STEAP4). To assess anti STEAP2 antibody specificity, plasmid constructs expressing hSTEAP1, hSTEAP2, hSTEAP3 or hSTEAP4 fused to Green Fluorescent Protein (GFP) were transiently introduced into HEK293 cells via lipofectamine 2000 based methodology. After 48 h, transiently transfected cells were stained with anti STEAP2 antibodies and imaged as described above for the internalization assay.

[2] = target: T2, hSTEAP4 fused to GFP (Homo sapiens, UniProt Q687X5); assay: Specificity: binding to HEK293 cells transfected with hSTEAP4-GFP
T2 construct: expressed in transfected cells; host or cells: HEK293
T2 sequence (Q687X5 1-459): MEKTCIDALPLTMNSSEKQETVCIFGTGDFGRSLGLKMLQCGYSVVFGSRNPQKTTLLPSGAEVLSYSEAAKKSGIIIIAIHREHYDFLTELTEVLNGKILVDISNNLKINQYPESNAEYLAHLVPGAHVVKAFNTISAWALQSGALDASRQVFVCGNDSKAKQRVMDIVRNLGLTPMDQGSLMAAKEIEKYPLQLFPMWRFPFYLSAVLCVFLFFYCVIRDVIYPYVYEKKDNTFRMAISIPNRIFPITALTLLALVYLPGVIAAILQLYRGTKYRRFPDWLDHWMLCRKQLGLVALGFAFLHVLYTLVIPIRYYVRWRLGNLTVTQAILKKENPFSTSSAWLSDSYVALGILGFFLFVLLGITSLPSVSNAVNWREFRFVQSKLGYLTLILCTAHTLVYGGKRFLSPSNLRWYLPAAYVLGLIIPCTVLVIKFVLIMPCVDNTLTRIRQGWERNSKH
Method: as §1

[3] = target: T3, hSTEAP3 fused to GFP (Homo sapiens, UniProt Q658P3); assay: Specificity: binding to HEK293 cells transfected with hSTEAP3-GFP
T3 construct: expressed in transfected cells; host or cells: HEK293
T3 sequence (Q658P3 1-488): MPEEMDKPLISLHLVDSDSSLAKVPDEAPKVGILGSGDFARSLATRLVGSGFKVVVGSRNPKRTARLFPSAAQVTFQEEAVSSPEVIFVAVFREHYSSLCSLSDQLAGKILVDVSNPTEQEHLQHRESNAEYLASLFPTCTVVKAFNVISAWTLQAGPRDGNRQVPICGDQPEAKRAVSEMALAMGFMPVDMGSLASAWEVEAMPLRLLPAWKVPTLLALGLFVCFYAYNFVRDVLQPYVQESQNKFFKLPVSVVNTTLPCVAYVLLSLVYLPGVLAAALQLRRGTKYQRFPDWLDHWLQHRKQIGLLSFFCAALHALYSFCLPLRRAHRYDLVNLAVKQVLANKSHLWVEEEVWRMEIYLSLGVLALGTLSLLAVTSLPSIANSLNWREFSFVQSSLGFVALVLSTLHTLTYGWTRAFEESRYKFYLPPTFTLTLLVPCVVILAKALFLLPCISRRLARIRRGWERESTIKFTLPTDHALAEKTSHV
Method: as §1

[4] = target: T4, hSTEAP2 fused to GFP (Homo sapiens, UniProt Q8NFT2); assay: Specificity: binding to HEK293 cells transfected with hSTEAP2-GFP
T4 construct: expressed in transfected cells; host or cells: HEK293
T4 sequence (Q8NFT2 1-490): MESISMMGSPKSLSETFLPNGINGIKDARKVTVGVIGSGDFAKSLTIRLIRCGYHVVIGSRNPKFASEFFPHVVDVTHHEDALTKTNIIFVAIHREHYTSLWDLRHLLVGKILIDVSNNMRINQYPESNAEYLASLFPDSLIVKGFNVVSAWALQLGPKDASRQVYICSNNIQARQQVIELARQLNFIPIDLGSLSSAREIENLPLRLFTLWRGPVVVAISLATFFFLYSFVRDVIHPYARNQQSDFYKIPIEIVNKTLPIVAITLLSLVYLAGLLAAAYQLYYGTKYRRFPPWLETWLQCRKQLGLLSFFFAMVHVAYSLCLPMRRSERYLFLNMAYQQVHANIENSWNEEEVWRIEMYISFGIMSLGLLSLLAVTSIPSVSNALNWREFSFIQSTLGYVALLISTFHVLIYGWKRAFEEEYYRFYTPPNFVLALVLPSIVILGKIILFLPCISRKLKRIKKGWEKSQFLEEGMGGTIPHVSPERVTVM
Method: as §1

T1 sequence (Q9UHE8 whole entry, the tested form may be a part): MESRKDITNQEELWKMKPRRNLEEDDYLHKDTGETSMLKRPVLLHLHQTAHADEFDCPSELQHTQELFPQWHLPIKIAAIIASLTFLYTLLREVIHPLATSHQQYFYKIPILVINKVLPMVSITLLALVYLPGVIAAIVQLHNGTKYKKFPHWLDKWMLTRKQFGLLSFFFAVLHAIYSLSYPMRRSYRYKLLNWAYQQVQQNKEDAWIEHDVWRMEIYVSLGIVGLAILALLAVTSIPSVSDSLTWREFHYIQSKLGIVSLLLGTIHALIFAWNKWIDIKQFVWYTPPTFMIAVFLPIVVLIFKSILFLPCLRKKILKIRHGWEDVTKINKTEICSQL

B1: H2M7810N: anti-STEAP2 antibody, HCVR/LCVR SEQ ID NOs 346/354 (antibody, V domains shown)
VH: QVQLVESGGGVVQPGRSLRLSCAVSGFTSSTYGMNWVRQAPGKGLEWVAVISYDGSNKYYADSVKGRFTISRDNSKNTLYLQMNSLRPEDTAVYYCARGRYFDLWGRGTLVTVSS
VL: DIQMTQSPSTLSASVGDRVTITCRASQIISSWLAWYQQKPGKAPKLLIYKASSLASGVPSRFSGSGSGTEFTLTISSLQPDDFATYYCQQYKSYSYTFGQGTKLEIK
B1 was tested, and the “Binding to hSTEAP1-GFP transfected HEK293 cells” value [1] was “−”, the “Binding to hSTEAP4-GFP transfected HEK293 cells” value [2] was “−” and the “Binding to hSTEAP3-GFP transfected HEK293 cells” value [3] was “−”. The “Binding to hSTEAP2-GFP transfected HEK293 cells” value [4] was “+”.

B2: H1M7814N: anti-STEAP2 antibody, mouse IgG1 Fc, HCVR/LCVR SEQ ID NOs 218/226 (antibody, V domains shown)
VH: QVQLVESGGGVVQPGRSLRLSCVASGFTISSYGMNWVRQAPGKGLEWVAVISYDGGNKYSVDSVKGRFTISRDNSKNTLYLQMNSLRAEDSAVYYCARGRYFDLWGRGTLVTVSS
VL: DIQMTQSPSTLSASVGDRVTITCRASQSISSWLAWYQQKPGRAPNLLISKASSLKSGVPSRFSGSGSGTEFTLTVSSLQPDDFATYYCQQYYSYSYTFGQGTKLEIK
modifications: mouse IgG1 Fc
B2 was tested, and the “Binding to hSTEAP1-GFP transfected HEK293 cells” value [1] was “−”, the “Binding to hSTEAP4-GFP transfected HEK293 cells” value [2] was “−” and the “Binding to hSTEAP3-GFP transfected HEK293 cells” value [3] was “−”. The “Binding to hSTEAP2-GFP transfected HEK293 cells” value [4] was “+”.

B3: H2M7811N: anti-STEAP2 antibody, HCVR/LCVR SEQ ID NOs 362/370 (antibody, V domains shown)
VH: QVQLVESGGGVVQPGRSLRLSCAVSGFTSSTYGMNWVRQAPGKGLEWVAVISFDGSNKYYADSVKGRFTISRDNSKNTLYLQMSSLRPEDTAVYYCARGRYFDLWGRGTLVTVSS
VL: DTQMTQSPSTLSASVGDRVTITCRASQIISSWLAWYQQKPGKAPKLLIYKASSLASGVPSRFSGSGSGTEFTLTISSLQPDDFATYYCQQYKSYSYTFGQGTNLEIK
For B3, the “Binding to hSTEAP1-GFP transfected HEK293 cells” value [1] was “−”, the “Binding to hSTEAP4-GFP transfected HEK293 cells” value [2] was “−” and the “Binding to hSTEAP3-GFP transfected HEK293 cells” value [3] was “−”. For the same molecule, the “Binding to hSTEAP2-GFP transfected HEK293 cells” value [4] was “+”.

B4: H2M7807N: anti-STEAP2 antibody, HCVR/LCVR SEQ ID NOs 314/322 (antibody, V domains shown)
VH: QVQLVESGGGVVQPGRSLRLSCAVSGFTSSTYGMNWVRQAPGKGLEWVAVISYDGSNKYYADSVKGRFTISRDNSKNTLYLQMNSLRPEDTAVYYCARGRYFDLWGRGTLVTVSS
VL: DIQMTQSPSTLSASVGDRVTITCRASQIISSWLAWYQQKPGKAPKLLIYKASSLASGVPSRFSGSGSGTEFTLTISSLQPDDFATYYCQQYKSYSYTFGQGTNLEIK
For B4, the “Binding to hSTEAP1-GFP transfected HEK293 cells” value [1] was “−”, the “Binding to hSTEAP4-GFP transfected HEK293 cells” value [2] was “−” and the “Binding to hSTEAP3-GFP transfected HEK293 cells” value [3] was “−”. For the same molecule, the “Binding to hSTEAP2-GFP transfected HEK293 cells” value [4] was “+”.
